Assay in all cases: two-hybrid library CCNG1;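 also: natural log of median RNA to DNA barcode read ratio; higher means stronger binding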
The target in assay [1] is T1, 4H1373-bH.
T1 chain: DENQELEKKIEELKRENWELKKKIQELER

Assay [2] concerns the target T2, 4H1449-bH.
T2 chain: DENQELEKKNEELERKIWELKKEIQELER

Assay [3] concerns the target T3, 4H1544-bH.
T3 chain: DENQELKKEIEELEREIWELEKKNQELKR

Assay [4] concerns the target T4, 4H1710-bH.
T4 chain: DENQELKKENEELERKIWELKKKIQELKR

In assay [5] the target is T5, 4H1899-bH.
T5 chain: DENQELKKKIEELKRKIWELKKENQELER

Assay [6] deals with T6, 4H1985-bH.
T6 chain: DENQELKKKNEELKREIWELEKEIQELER

Assay [7] addresses T7, 4H3162-bH.
T7 chain: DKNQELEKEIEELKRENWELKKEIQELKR

In assay [8] the target is T8, 4H3175-bH.
T8 chain: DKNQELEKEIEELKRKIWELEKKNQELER

Assay [9] addresses T9, 4H3277-bH.
T9 chain: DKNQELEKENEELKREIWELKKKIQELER

The target in assay [10] is T10, 4H3298-bH.
T10 chain: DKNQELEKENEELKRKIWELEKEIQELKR

Assay [11] addresses T11, 4H3462-bH.
T11 chain: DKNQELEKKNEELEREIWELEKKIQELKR

The target in assay [12] is T12, 4H3497-bH.
T12 chain: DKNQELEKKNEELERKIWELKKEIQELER

Assay [13] concerns the target T13, 4H3613-bH.
T13 chain: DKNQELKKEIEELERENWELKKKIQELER

The target in assay [14] is T14, 4H3628-bH.
T14 chain: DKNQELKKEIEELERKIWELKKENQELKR

The target in assay [15] is T15, 4H3782-bH.
T15 chain: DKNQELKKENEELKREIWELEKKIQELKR

The target of assay [16] is T16, 4H3817-bH.
T16 chain: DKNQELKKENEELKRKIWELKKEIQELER

Assay [17] deals with T17, 4H3843-bH.
T17 chain: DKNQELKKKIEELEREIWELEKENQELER

Assay [18] addresses T18, 4H3858-bH.
T18 chain: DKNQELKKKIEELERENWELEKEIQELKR

Assay [19] deals with T19, 4H3926-bH.
T19 chain: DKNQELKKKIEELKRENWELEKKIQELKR

Assay [20] has as its target T20, 4H3974-bH.
T20 chain: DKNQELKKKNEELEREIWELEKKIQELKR

Assay [21] concerns the target T21, 4H570-bH.
T21 chain: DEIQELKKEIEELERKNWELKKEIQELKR

Assay [22] deals with T22, 4H591-bH.
T22 chain: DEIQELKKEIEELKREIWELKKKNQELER

Assay [23] has as its target T23, 4H626-bH.
T23 chain: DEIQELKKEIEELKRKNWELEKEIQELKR

The target of assay [24] is T24, 4H730-bA.
T24 chain: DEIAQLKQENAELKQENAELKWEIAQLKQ

The target in assay [25] is T25, 4H850-bH.
T25 chain: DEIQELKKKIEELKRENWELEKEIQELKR

In assay [26] the target is T26, 4H906-bH.
T26 chain: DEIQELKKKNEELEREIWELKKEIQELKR

In assay [27] the target is T27, 4H932-bN.
T27 chain: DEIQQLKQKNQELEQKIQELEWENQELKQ

In assay [28] the target is T28, O8.
T28 chain: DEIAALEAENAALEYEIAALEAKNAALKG

Assay [29] concerns the target T29, P2SHb.
T29 chain: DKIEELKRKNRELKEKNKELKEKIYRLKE

For assay [30], the target named is T30, P3SHb.
T30 chain: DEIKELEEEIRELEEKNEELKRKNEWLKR

In assay [31] the target is T31, P4SHb.
T31 chain: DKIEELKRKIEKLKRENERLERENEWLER

The target of assay [32] is T32, P5SHb.
T32 chain: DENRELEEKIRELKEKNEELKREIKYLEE

For assay [33], the target named is T33, P6SHb.
T33 chain: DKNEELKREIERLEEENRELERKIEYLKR

Assay [34] has as its target T34, P7SHb.
T34 chain: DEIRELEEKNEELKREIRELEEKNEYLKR

Assay [35] has as its target T35, P8SHb.
T35 chain: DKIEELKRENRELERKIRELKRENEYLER

Assay [36] deals with T36, P9SHb.
T36 chain: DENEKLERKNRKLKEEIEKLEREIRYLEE

Take DENQELEKKIEELKRENWELKKKIQELER [4H1373-bH]: the interaction score in assay [1] is 0.778; in assay [2], -1.04; in [3], -0.374; in assay [4], -2.29; in assay [5] it was -2; in assay [6] it was 0.5. The interaction score in [7] was 0.645; in assay [8], 0.281; in [9], -0.681; in assay [10], 0.0783; in assay [11], -0.048; in assay [12] it was -0.763. Moreover, the interaction score in assay [13] was 0.423; in assay [14] it was -1.36; in assay [15], -0.345; in [16], -0.502; in [17], -0.0729; in assay [18], 0.654. The interaction score in assay [19] is 1.67; in [20] it was 0.369; in assay [21] it was 0.082; in assay [22], -0.84; in assay [23], -0.984; in assay [24] it was -0.488. Besides, the interaction score was -0.156 in assay [25], -0.627 in assay [26], 0.58 in assay [27] and -0.719 in [28].
In the case of DKIEELKRKNRELKEKNKELKEKIYRLKE [P2SHb], the interaction score in assay [29] was -0.669; in assay [30], -0.091; in assay [31], 0.291; in [32], 0.588; in [33], 0.195; in [34], 0.49. For the same molecule, the interaction score in assay [35] is -0.265; in assay [36], -1.55.
